Source: US20240124576A1

What was measured:
[1] = molecular target: murine S-15 Biotin (Acrobiosystems, Cat. No. SG5-M52H7, biotinylated) (murine); experiment: flow cytometry of yeast-displayed scFv clone, 30 nM Murine S-15 Biotin, Streptavidin-PE
Irrelevant antigen = experiment: flow cytometry of yeast-displayed scFv clone, 30 nM irrelevant antigen, Streptavidin-PE
[2] = molecular target: Monkey S-15-Fc (Acrobiosystems, Cat. No. SG5-C5253) (monkey); experiment: flow cytometry of yeast-displayed scFv clone, 10 nM Monkey S-15-Fc, M&H Fc-APC
[3] = molecular target: T1, biotinylated human Siglec-15 protein (Acrobiosystems, Cat. No. SG5-H82E9) (human) (UniProt Q6ZMC9); experiment: flow cytometry of yeast-displayed scFv clone, 30 nM Human S-15 Biotin, Streptavidin-PE
T1 sequence (biotinylated, looked up): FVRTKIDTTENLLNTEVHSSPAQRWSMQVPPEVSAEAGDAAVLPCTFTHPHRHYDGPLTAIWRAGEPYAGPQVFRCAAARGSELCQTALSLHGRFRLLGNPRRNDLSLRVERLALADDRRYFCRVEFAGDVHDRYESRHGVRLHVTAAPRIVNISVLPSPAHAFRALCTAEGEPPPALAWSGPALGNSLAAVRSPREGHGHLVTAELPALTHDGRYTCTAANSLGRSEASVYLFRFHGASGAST

Murine S-15 binding signal [1]: 286 MFI
Irrelevant antigen-binding signal (Irrelevant antigen): 12.5 MFI
Monkey S-15 binding signal [2]: 588 MFI
Human S-15 binding signal [3]: 666 MFI
B1: Ab0 (clone Y14C4), single-chain antibody displayed on yeast (scFv, part only; not given: linker, domain order, tag, anchor, V domains shown, not shown: another chain or arm of the molecule; large carriers; small tags and cut ends)
VH: EVQLLESGGGLVQPGGSLRLSCAASGFTFSSYAMSWVRQAPGKGLEWVSTISGGGGSTYYADSVKGRFTISRDNSKNTLYLQMNSLRAEDTAVYYCAKAIGSSWYSDAFDLWGQGTMVTVSS
VL: DIQMTQSPSSVSASVGDRVTITCRASQDISSWLAWYQQKPGKAPKLLIYVASSLQSGVPSRFSGSGSGTDFTLTISSLQPEDFATYYCQQSYSIPYTFGQGTKLEIK
